Measurements reported in patent US8980604B2 (priority 2009, dated 2015).
Numbering of substitutions follows the chain as printed. Numbers in names are those of the source.

Assays:
[1] = molecular target: T1, E. coli glycerol dehydrogenase (GlyDH, GldA), native (wild type) (Escherichia coli, UniProt P0A9S5); assay: Kinetics toward NADH and inhibition by NAD+, crude extract, native GlyDH
T1 sequence (P0A9S5 1-367): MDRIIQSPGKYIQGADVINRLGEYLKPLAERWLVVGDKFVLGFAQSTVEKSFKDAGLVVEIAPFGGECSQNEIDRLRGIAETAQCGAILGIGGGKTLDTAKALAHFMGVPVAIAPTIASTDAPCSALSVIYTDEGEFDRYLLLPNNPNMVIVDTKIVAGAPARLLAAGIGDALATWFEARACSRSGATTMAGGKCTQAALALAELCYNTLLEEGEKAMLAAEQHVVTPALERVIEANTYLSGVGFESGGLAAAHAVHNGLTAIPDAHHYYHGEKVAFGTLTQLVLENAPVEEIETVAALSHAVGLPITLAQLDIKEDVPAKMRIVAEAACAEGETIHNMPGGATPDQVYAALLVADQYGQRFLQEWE

[2] = molecular target: T2, E. coli glycerol dehydrogenase (GlyDH, GldA) mutant GlyDH*(A160T) (Escherichia coli, UniProt P0A9S5, A160T); assay: Inhibition by substrate hydroxyacetone (Dixon plot), GlyDH*(A160T); type: biochemical; parameters: made in house; host or cells: E. coli BL21 star (DE3) ΔgldA::Cm with pETTOPO-gldA*(A160T); conditions: crude extract
T2 sequence (P0A9S5 1-367 A160T): T1 sequence (P0A9S5 1-367) with A160T
Protocol: (§1) The 3 strains E. coli MG1655 pME101-VB01-gldA, E. coli MG1655 pME101-VB01-gldA*(A160T) and E. coli MG1655 pME101-VB01-gldA*(T120N) were cultivated in minimal medium with 10 g/l glucose as carbon source in 500 ml baffled Erlenmeyer flasks with 50 ml culture medium. The culture was carried out on a rotary shaker at 200 rpm. The temperature of the culture was maintained at 37° C. and the pH of the medium was buffered with MOPS (initial pH 6.8). Expression of the gene on the pME101-VB01 plasmid was induced by adding 100 μM IPTG at the beginning of the culture. The cultures were stopped at mid-exponential phase. The biomass was harvested by centrifugation, the supernatant was discarded and the pellet was stored at −20° C. before use.
(§2) Between 55-65 mg of E. coli biomass were resuspended in 9 ml of 100 mM Potassium phosphate pH 7, 0.1 mM DTT, 0.1 mM pyridoxal 5′-phosphate (PLP) and a protease inhibitor cocktail. Cells were sonicated on ice (Branson sonifier, 70 W) during four cycles of 30 sec with 30 sec intervals. After sonication, cells debris were removed by centrifugation at 12000 g for 30 min at 4° C. The crude extracts were desalted using an Econo-Pac 10 DG column (BioRad).

[3] = molecular target: T3, E. coli glycerol dehydrogenase (GlyDH, GldA) mutant GlyDH*(T120N) (Escherichia coli, UniProt P0A9S5, T120N); assay: Inhibition by substrate hydroxyacetone (Dixon plot), GlyDH*(T120N); type: biochemical; parameters: made in house; host or cells: E. coli BL21 star (DE3) ΔgldA::Cm with pETTOPO-gldA*(T120N); conditions: crude extract
T3 sequence (P0A9S5 1-367 T120N): T1 sequence (P0A9S5 1-367) with T120N
Protocol: as §1, §2

[4] = molecular target: GlyDH (glycerol dehydrogenase) of Nishise et al, 1984 (Cellulomonas); conditions: read-out: Ki (hydroxyacetone), literature; cited from earlier work
[5] = molecular target: T1, E. coli glycerol dehydrogenase (GlyDH, GldA), native (wild type); assay: Inhibition by product 1,2-propanediol, native GlyDH; type: biochemical; parameters: made in house; host or cells: E. coli BL21 star (DE3) ΔgldA::Cm with pETTOPO-gldA; conditions: read-out: loss of maximum activity
Protocol: as §1, §2

[6] = test system: Glycerol dehydrogenase (GlyDH); type: biochemical, E. coli; conditions: crude extract; hydroxyacetone as substrate
Protocol: (§3) Glycerol dehydrogenase activity was assayed by measuring the initial rate of NADH oxidation with a spectrophotometer at a wavelength of 340 nm and at a constant temperature of 30° C. […] Control assay (blank), lacking the substrate was run in parallel and the value measured for the control was subtracted to the value measured for the assay to take into account non-specific oxidation of NADH.
(§4) One unit of enzyme activity was defined as the amount of enzyme that consumed 1 μmol substrate per minute under the conditions of the assay. Specific enzyme activity was expressed as units per mg of protein.
(§5) Enzyme kinetics with regards to NADH were realised with increasing concentration of NADH between 0.025 and 0.4 mM.

[7] = substrate: CC(=O)CO; assay: purified protein, by the assay type; conditions: other: purified enzyme, pH 6.5, 30° C., 0.1 mM NADH, hydroxyacetone 0.1 to 15 mM
[8] = test system: Glycerol dehydrogenase (GlyDH); type: biochemical, E. coli; conditions: for Specific activity, Glycolaldehyde: substrate glycolaldehyde; for Specific activity, Glycolaldehyde / Specific activity, Hydroxyacetone / Specific activity, Methyl glyoxal: purified enzyme, pH 6.5, 30° C.; for Specific activity, Hydroxyacetone: substrate hydroxyacetone; for Specific activity, Methyl glyoxal: substrate methyl glyoxal
Protocol: The oxidation reaction was carried out in quartz cuvette cells filled with 1 ml of the mixture: 100 mM MES buffer pH 6.5 with 30 mM of ammonium sulphate, 0.1 mM of iron sulphate, 0.1 mM of NADH and around 0.5 μg of purified proteins. […] In all reactions, non enzymatic rates were subtracted from the observed initial reaction rates. Enzyme activities are reported as μmoles of substrate/min/mg of […] and represents averages for at least three purified enzyme preparations.
The purification process designed to purify the glycerol dehydrogenase overexpressed in E. coli is composed of two steps. […] Cell pellets were resuspended in 3 ml of 50 mM HEPES buffer pH 7.5 containing protease inhibitor cocktail (Roche) and homogenized by sonication (at 0° C., under aerobic conditions, in four cycles of 30 s with 2 minutes intervals between each cycle). Cells debris were eliminated by centrifugation (5 min 12000 g) and nucleic acids in cell homogenate were precipitated by a streptomycin sulphate treatment (13.3 mg/ml final concentration, 15 minutes, 0° C.). The streptomycin sulphate treated cell homogenate was harvested by centrifugation (5 min 12000 g), and contaminant proteins of the supernatant were eliminated by ammonium sulphate precipitation at a saturated concentration of 20%, at 4° C., with stirring over one hour. The precipitate was then removed by centrifugation (20 min, 8600 g, 4° C.) and discarded. A further portion of ammonium sulphate at a saturated concentration of 30% was added to the supernatant as previously and then centrifuged 30 minutes at 8600 g 4° C. collecting the precipitate. The precipitate was dissolved in 3 ml of 50 mM Hepes Buffer pH 7.5 with 1M ammonium sulphate before loading 2.5 ml sample onto a hydrophobic interaction chromatography column (Hitrap phenyl sepharose, GEhealthcare) connected to an AKTA purifier system and equilibrated with 50 mM Hepes Buffer pH 7.5 containing 1M ammonium sulphate. After washing with 20 ml of the same buffer, proteins were eluted with a 20 ml linear gradient of 50 mM Hepes Buffer pH 7.5 from 1 M to 0 M of ammonium sulphate. […] The protein concentration and purity were respectively determined with the Bradford reagent and with sodium dodecylsulfate polyacrylamide gel electrophoresis (FIG. 3).
The kinetic parameters were determined with Sigma Plot (Systat Software Inc, San Jose Calif.) by fitting to the Michaelis Menten equation using a non linear regression.

[9] = molecular target: T4, Glycerol dehydrogenase (GlyDH) (Escherichia coli, UniProt P0A9S5, A160T); type: biochemical, E. coli; conditions: NAD+ 0.6-1.2-2.5-4 mM
T4 construct: made in house; host or cells: E. coli MG1655, plasmid pME101-VB01-gldA; crude extract, not purified
T4 sequence (P0A9S5 whole entry A160T): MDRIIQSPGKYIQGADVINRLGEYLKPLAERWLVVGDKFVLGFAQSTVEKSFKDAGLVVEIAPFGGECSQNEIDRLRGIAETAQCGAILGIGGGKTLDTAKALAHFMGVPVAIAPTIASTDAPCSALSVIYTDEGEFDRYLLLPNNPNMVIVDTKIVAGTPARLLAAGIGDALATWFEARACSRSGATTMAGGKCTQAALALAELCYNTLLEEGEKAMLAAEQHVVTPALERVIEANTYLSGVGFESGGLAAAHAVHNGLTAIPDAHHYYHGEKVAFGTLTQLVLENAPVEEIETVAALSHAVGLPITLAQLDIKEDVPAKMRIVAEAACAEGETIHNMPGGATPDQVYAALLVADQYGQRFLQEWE
Protocol: as §3, §4, §5

NC(=O)c1ccc[n+]([C@@H]2O[C@H](COP(=O)([O-])OP(=O)(O)OC[C@H]3O[C@@H](n4cnc5c(N)ncnc54)[C@H](O)[C@@H]3O)[C@@H](O)[C@H]2O)c1 [NAD+]
Ki [1]: 0.43 mM

CC(=O)CO [Hydroxyacetone, hydroxyacetone]
Ki Hydroxyacetone increase by a factor (vs native) [2]: more than 10 | Ki Hydroxyacetone increase by a factor (vs native) [3]: more than 10 | Ki [4]: 11.6 mM

CC(O)CO (centres unmarked) [1,2-propanediol]
inhibition at 40000 µM [5]: 50% | inhibition at 100000 µM [5]: 65%

B1: E. coli glycerol dehydrogenase (GlyDH, GldA), native (wild type) (Escherichia coli K-12) (protein)
chain: T1 sequence (P0A9S5 1-367)
Specific activity [6]: 1240 ± 77 nmol/min/mg | Km [7]: 70 ± 20 µM | Specific activity, Glycolaldehyde [8]: 148.89 +/− 19.36 U/mg | Specific activity, Hydroxyacetone [8]: 36.3 +/− 0.88 U/mg | Specific activity, Methyl glyoxal [8]: 57.77 +/− 3.81 U/mg

B2: E. coli glycerol dehydrogenase (GlyDH, GldA) mutant GlyDH*(A160T) (Escherichia coli K-12; A160T) (protein)
chain: T1 sequence (P0A9S5 1-367) with A160T
Specific activity [6]: 1140 ± 42 nmol/min/mg | Inhibition by NAD+ at the concentrations used [9]: almost no inhibition | Specific activity, Glycolaldehyde [8]: 167.33 +/− 6.03 U/mg | Specific activity, Hydroxyacetone [8]: 40.5 +/− 0.85 U/mg | Specific activity, Methyl glyoxal [8]: 58.27 +/− 2.42 U/mg | Kinetics compared with native enzyme ([8]; three substrates, pH 6.5): no significant differences
